# US20180016312A1 (Pieris, published 2018)
# Where a chain is given by its changes, count along the chain named.
# B1: benchmark antibody 1 (SEQ ID NOs: 17/18) (antibody, human IgG1, lambda, V domains shown)
# VH: not shown
# VL: QPGLTQPPSVSVAPGQTARITCGGNNIGSKSVHWYQQKPGQAPVLVVYDDSDRPSGIPERFSGSNSGNTATLTISRVEAGDEADYYCQVWDSSSDHYVFGTGTKVTVLG
# B2: hNGAL lipocalin mutein SEQ ID NO: 5 (designed binder)
# chain: QDSTSDLIPAPPLSKVPLQQNFQDNQFHGKWYVVGQAGNYWLREDKDPIKMSATIYELKEDKSYNVTIVYFTRKKCSYRIYTFVPGSQPGEFTLGPIKSYPGDTSTLVRVVSTNYNQHAMVFFKHVYQNREWFEITLYGRTKELTSELKENFIRFSKSLGLPENHIVFPVPIDQCIDGSAWSHPQFEK
# notes: Mutein of mature hNGAL
# B3: hNGAL lipocalin mutein SEQ ID NO: 13 (designed binder)
# chain: QDSTSDLIPAPPLSKVPLQQNFQDNQFHGKWYVVGVAGNWYLREDKDPIKMTATIYELKEDKSYDVTQVGFEQEKCKYSIHTFVPGSQPGEFTLGDIKSWPGDTSPLVRVVSTNYNQHAMVFFKGMMQDREVFAITLYGRTKELTSELKENFIRFSKSLGLPENHIVFPVPIDQCIDGSAWSHPQFEK
# notes: Mutein of mature hNGAL
# B4: hNGAL lipocalin mutein SEQ ID NO: 3 (designed binder)
# chain: B3 chain with D65N, E74K, P106L, M126V, D129N
# notes: Mutein of mature hNGAL
# B5: hNGAL lipocalin mutein SEQ ID NO: 14 (designed binder)
# chain: B3 chain with V36M, Y41D, G70A, E74K, D96Q, M126V, D129N
# notes: Mutein of mature hNGAL
# B6: hNGAL lipocalin mutein SEQ ID NO: 12 (designed binder)
# chain: B3 chain with D96N, N116D, M126V
# notes: Mutein of mature hNGAL
# B7: hNGAL lipocalin mutein SEQ ID NO: 2 (designed binder)
# chain: QDSTSDLIPAPPLSKVPLQQNFQDNQFHGKWYVVGFAGNHRLREDKDPGKMHATIYELKEDKSYNVTDVTFAFKKCNYRIHTFVPGSQPGEFTLGNIKSWPGETSTLVRVVSTNYNQHAMVFFKTVMQNREWFWITLYGRTKELTSELKENFIRFSKSLGLPENHIVFPVPIDQCIDGSAWSHPQFEK
# notes: Mutein of mature hNGAL
# B8: hNGAL lipocalin mutein SEQ ID NO: 1 (designed binder)
# chain: QDSTSDLIPAPPLSKVPLQQNFQDNQFHGKWYVVGQAGNYILREDKDPGKMWATIYELKEDKSYNVTGVSFGPKKCNYTIWTFVPGSQPGEFTLGGIKSPPGGTSTLVRVVSTNYNQHAMVFFKHVLQNREFFEITLYGRTKELTSELKENFIRFSKSLGLPENHIVFPVPIDQCIDGSAWSHPQFEK
# notes: Mutein of mature hNGAL
# B9: hNGAL lipocalin mutein SEQ ID NO: 6 (designed binder)
# chain: B8 chain with G49E, N65D, T79R, P100S, G103Q
# notes: Mutein of mature hNGAL
# B10: hNGAL lipocalin mutein SEQ ID NO: 10 (designed binder)
# chain: B8 chain with G49Q, N65D, P73A, N77V, T79R
# notes: Mutein of mature hNGAL
# B11: hNGAL lipocalin mutein SEQ ID NO: 4 (designed binder)
# chain: QDSTSDLIPAPPLSKVPLQQNFQDNQFHGKWYVVGEAGNVELREDKDPVKMTATIYELKEDKSYNVTEVRFWLKKCKYNIHTFVPGSQPGEFTLGAIKSGPGMTSTLVRVVSTNYNQHAMVFFKTVMQNREWFWITLYGRTKELTSELKENFIRFSKSLGLPENHIVFPVPIDQCIDGSAWSHPQFEK
# notes: Mutein of mature hNGAL
# Molecular target: T1, human angiopoietin-2 (human, UniProt O15123 19-496, limits assumed)
# T1 construct: Bought recombinant protein with a His tag (detected by anti-HIS-tag antibody); also called human Ang-2; hAng-2
# T1 sequence (looked up): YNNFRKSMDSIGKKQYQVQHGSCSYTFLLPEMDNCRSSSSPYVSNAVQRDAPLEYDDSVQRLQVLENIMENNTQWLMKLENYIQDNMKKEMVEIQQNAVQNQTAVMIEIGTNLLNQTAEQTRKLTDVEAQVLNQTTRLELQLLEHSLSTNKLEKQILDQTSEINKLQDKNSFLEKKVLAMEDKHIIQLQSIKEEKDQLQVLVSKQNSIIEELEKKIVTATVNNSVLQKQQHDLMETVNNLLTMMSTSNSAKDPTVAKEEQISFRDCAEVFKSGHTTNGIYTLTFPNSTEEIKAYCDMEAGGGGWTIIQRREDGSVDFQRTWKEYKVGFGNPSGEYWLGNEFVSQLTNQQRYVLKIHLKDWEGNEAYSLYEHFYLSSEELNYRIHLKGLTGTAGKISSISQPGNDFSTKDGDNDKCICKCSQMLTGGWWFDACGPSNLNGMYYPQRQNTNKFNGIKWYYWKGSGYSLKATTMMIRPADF
# Test: competition ELISA; 0.5 nM hAng-2 pre-incubated with binder, free hAng-2 captured on hTie-2 Fc (competitor)
# Procedure: All incubation steps were performed with shaking at 300 rpm, and the plate was washed after each incubation step with 80 μl PBS-T buffer (PBS, 0.05% Tween 20) for five times using a Biotek EL405 select CW washer (Biotek). In the first step, a 384 well plate was directly coated with 20 μl of soluble human hTie-2 Fc (Reliatech) at a concentration of […] in PBS over night at 4 ° C. After washing, h Tie-2 Fc coated wells were blocked with 60 μl PBS-T/BSA (2% BSA in PBS containing 0.1% Tween 20) for 1 h at room temperature.
# Curve fitting was performed using GraphPad Prism 4 software.
row,Binder,IC50
1,B1,0.0158 nM
2,B2,0.861 nM
3,B3,0.184 nM
4,B4,0.319 nM
5,B5,0.105 nM
6,B6,0.131 nM
7,B7,1.71 nM
8,B8,0.558 nM
9,B9,0.0627 nM
10,B10,0.0794 nM
11,B11,0.412 nM

# Molecular target: T1, human angiopoietin-2
# Test: competition cell ECL; hAng-2 pre-incubated with binder, free Ang-2 captured on HEK:hTie-2 cells (competitor)
# Procedure: (§1) All incubation steps were performed at room temperature, and the plate was washed after each incubation step with 80 μl PBS buffer for two times using a Biotek EL405 select CW washer (Biotek). In the first step, a 384 well plate was precoated for 5 minutes with poly D lysine and washed twice with PBS. 10⁴ HEK:hTie-2 cells per well were seeded and allowed to adhere to the surface of the wells overnight at 37° C. . After washing, cell coated wells were blocked with 60 μl PBS/Casein (2% Casein in PBS) for 1 h at room temperature.
# (§2) After washing, 35 μl surfactant-free reading buffer was added to each well and the ECL signal of every well was read using a Mesoscale Discovery reader.
row,Binder,IC50
1,B3,5.43 nM
2,B4,10.7 nM
3,B5,6.41 nM
4,B6,5.29 nM
5,B8,18.9 nM
6,B9,3.46 nM
7,B10,4.63 nM

# Molecular target: T1, human angiopoietin-2
# Test: ELISA; Ang-2 coated, mutein detected by anti-Streptag-HRP
# Procedure: Binding of muteins was tested by a sandwich ELISA assay.
# 20 μl of serially diluted muteins were incubated in PBS-T/BSA for 1h at room temperature (RT).
# The residual supernatants were discarded and 20 μl HRP-labeled anti-Streptag antibody was added at a predetermined optimal concentration in PBS-T/BSA and incubated for 1 h at RT. After washing, 20 μl fluorogenic HRP substrate (QuantaBlu, Thermo) was added to each well, and the reaction was allowed to proceed for 15 to 60 minutes. The fluorescence intensity of every well on the plate was read using a fluorescence microplate reader (Tecan or Molecular Devices). Curve fitting was performed using GraphPad Prism 4 software.
row,Binder,EC50
1,B2,3.5 nM
2,B4,2.8 nM
3,B7,3 nM
4,B8,3.7 nM

# Molecular target: T1, human angiopoietin-2
# Test: cell-based or functional assay
row,Binder,"IC50 mean, LEC proliferation assay (CellTiter-Glo)"
1,B1,0.0668 nM
2,B4,2.81 nM
3,B8,2.25 nM

# Molecular target: T2, mouse angiopoietin-2 (mouse, UniProt O35608 19-496, limits assumed)
# T2 construct: Bought recombinant protein; also called mouse Ang-2; mAng-2
# T2 sequence (looked up): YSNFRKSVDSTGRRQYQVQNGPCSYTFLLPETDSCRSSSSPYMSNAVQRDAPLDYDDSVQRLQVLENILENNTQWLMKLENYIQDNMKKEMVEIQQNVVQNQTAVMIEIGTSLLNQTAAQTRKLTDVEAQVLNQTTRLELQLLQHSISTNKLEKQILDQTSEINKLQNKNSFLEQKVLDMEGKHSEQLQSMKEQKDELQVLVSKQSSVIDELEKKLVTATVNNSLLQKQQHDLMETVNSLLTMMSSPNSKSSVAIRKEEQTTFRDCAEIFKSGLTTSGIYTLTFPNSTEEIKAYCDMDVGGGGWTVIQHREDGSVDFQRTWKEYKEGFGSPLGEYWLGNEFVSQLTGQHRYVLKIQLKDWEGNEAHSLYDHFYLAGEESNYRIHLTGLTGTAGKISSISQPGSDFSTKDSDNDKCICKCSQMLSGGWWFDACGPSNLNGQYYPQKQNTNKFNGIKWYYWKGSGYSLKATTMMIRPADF
# Test: competition cell ECL; mAng-2 pre-incubated with binder, free Ang-2 captured on HEK:hTie-2 cells (competitor)
# Procedure: as §1, §2
row,Binder,IC50
1,B3,7.34 nM
2,B4,23.2 nM
3,B5,2.32 nM
4,B6,3.12 nM
5,B8,3.98 nM
6,B9,1.21 nM
7,B10,1.05 nM
